Measured values as given in article PMC3038869.

Target: Epidermal Growth Factor Receptor (EGFR), Drosophila, endogenous (Drosophila (endogenous in ovaries)) (UniProt P04412)
Assay: co-IP; ovarian lysates of wild-type females or females expressing D-CblL or RING-SH2^Drk in follicle cells, immunoprecipitated with mouse monoclonal anti-EGFR, 4°C; blotted with rabbit anti-EGFR and anti-Drk

Chain of UniProt P04412 (P04412 31-1426): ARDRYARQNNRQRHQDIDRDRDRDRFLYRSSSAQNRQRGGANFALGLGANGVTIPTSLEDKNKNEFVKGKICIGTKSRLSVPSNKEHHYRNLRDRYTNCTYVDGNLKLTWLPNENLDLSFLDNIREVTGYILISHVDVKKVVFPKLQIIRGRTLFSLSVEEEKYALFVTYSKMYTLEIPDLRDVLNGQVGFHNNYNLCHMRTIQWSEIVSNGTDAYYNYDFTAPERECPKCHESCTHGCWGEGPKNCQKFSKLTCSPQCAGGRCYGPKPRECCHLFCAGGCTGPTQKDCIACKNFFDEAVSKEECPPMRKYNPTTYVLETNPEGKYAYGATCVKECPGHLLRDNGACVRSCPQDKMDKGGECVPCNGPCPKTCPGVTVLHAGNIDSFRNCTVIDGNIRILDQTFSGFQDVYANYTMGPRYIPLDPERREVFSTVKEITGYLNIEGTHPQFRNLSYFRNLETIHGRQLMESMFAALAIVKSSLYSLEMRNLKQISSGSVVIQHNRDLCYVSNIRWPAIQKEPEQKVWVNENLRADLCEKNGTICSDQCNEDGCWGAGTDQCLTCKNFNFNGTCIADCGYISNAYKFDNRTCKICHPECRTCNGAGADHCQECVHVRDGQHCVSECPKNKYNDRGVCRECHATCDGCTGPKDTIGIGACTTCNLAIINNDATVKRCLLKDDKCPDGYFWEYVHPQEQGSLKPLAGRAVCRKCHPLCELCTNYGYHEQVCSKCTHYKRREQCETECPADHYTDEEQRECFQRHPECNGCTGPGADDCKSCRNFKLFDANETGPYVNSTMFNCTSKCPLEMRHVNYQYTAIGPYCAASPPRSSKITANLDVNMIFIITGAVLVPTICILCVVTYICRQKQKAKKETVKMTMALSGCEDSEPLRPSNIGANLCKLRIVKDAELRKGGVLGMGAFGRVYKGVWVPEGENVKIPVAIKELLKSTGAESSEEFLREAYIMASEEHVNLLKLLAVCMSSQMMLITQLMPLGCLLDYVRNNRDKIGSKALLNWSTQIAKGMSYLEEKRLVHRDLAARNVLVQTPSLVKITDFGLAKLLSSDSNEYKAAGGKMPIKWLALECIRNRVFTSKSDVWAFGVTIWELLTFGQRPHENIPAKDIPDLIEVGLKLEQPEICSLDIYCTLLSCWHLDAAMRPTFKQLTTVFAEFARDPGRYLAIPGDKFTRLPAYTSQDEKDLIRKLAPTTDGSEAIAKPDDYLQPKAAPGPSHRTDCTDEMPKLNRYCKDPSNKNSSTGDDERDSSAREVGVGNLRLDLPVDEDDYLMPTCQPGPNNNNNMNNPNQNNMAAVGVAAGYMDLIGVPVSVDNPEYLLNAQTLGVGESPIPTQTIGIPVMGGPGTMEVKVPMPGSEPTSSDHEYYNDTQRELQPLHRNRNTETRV

Which percent reduction of Drk in the EGFR complex does the source give for “RING-SH2^Drk, fusion of the RING finger domain of D-CblL and the SH2 domain of Drk (from UniProt Q08012 53-160)” here?
Its percent reduction of Drk in the EGFR complex is 40%.
